Experimental data: patent US20260069689A1

Target: T1, human CD20 on Jurkat cells (human) (UniProt P11836)
T1 sequence: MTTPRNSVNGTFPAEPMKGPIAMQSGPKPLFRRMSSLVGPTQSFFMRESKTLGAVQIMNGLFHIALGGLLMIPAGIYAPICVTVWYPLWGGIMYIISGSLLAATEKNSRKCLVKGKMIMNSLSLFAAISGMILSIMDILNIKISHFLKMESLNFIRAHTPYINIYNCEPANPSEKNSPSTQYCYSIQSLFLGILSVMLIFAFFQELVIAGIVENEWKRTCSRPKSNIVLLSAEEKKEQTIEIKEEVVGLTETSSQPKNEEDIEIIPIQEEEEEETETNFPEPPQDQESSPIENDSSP
Test: cell-based or functional assay

casirivimab + imdevimab was tested, and the Max ADCP (%), MDM donor #1, Jurkat/hCD20 cells was 15.5%, the Max ADCP (%), MDM donor #2, Jurkat/hCD20 cells was 15.1% and the Max cytotoxicity (%), ADCC, NK donor #1, Jurkat/hCD20 cells was 0.8%. For the same substance, the Max cytotoxicity (%), ADCC, NK donor #2, Jurkat/hCD20 cells was 4.8% and the Max cytotoxicity (%), ADCC, NK donor #3, Jurkat/hCD20 cells was 0%.
